Columns and labels:
[1] = target: Ub vinyl sulfone HA-tagged probe (Ub-VS-HA; Cat #U-212, Boston Biochem) (UniProt P0CG48)
[2] = target: lysine-less catalytically inactive UCHL1 (UniProt P09936)
[3] = target: lysine-less catalytically inactive UCHL5 (UniProt Q9Y5K5)

| Substance | modification by the suicide probe Ub-VS (immunoblot) [1] | in vitro ubiquitination assay with purified proteins (immunoblot) [2] | in vitro ubiquitination assay with purified proteins (immunoblot) [3] |
| --- | --- | --- | --- |
| N-terminally ubiquitinated mimetic Ub^G76V_UCHL1 | Ub^G76V_UCHL1 remained largely unmodified | – | – |
| N-terminally ubiquitinated mimetic Ub^G76V_UCHL5 | Ub^G76V_UCHL5 rapidly reacted with Ub-VS | – | – |
| UBE2W (Cat #E2-740, Boston Biochem) | – | UBE2W can monoubiquitinate lysine-less versions of both UCHL1 and UCHL5 | UBE2W can monoubiquitinate lysine-less versions of both UCHL1 and UCHL5 |

Source: US20240109958
